Values belong to the molecule of their own block, whether it stands above or below them. Square brackets hold non-standard residues; d marks the D form. Ends that are not written are not given here. dPhe(4-Cl) = N[C@H](Cc1ccc(Cl)cc1)C(=O)O; Aib = CC(C)(N)C(=O)O
Assays:
VIP receptors = assay: Displacement assay using 125I labeled VIP on human tumor cell lines; type: binding; conditions: for IC50: inhibition of 125I labeled VIP binding
Description: Peptides of the invention were assayed for biological activity in homogeneous competition binding assays using ^125I labeled VIP peptide (SEQ ID NO:1) and in heterogeneous displacement assays using either ^125I labeled VIP (10-28) fragment (Tyr-Thr-Arg-Leu-Arg-Lys-Gln-Met-Ala-Val-Lys-Lys-Tyr-Leu-Asn-Ser-Ile-Leu-Asn-NH2) (SEQ ID NO: 12) or ^125I labeled VIP (SEQ ID NO:1). The assays were performed on a variety of human tumor cell lines.
In the practice of these methods, the peptide was radioiodinated using the iodogen method. Briefly, 5 μg of the peptide in 10 μl of 50 mM PBS (pH 7.5), an appropriate amount of the radioisotope and 50 μg-100 μg iodogen were incubated at room temperature for 15-30 min with occasional mixing. Radioiodinated peptide was purified from unincorporated radioactive iodine by purification on a Sep Pak C18 cartridge, essentially following the same procedure as described for technetium labeling.
Displacement assays were performed at 4-8° C. Briefly, 50,000 cells were plated per well of a 24 well plate and allowed to adhere overnight. Before the assay, the cells were washed twice with ice cold Binding buffer (25 mM HEPES, 10 mM […] MgCl2 and 1% BSA in RPMI 1640 medium). The cells were incubated for 2-3hrs with an appropriate concentration (0.1-10 nM) of ^125I labeled VIP (SEQ ID NO:1) in the presence and absence of the cold ligand (SEQ ID NO: 2) (1 nM-10 μM). The non specific binding was ascertained using 10 μM of VIP. After incubation, the cells were washed thrice with the Binding buffer to remove the unbound peptide. The cells were lysed and counts were measured in a Gamma counter. From a comparison of the extent of binding in the presence or absence of the unlabeled peptide, a concentration was determined corresponding to inhibition of ^125I labeled VIP binding by 50%. Different tumor cell lines were assayed using the above described displacement assay: HT29 (human colorectal adenocarcinoma); PTC (human primary tumor cells adenocarcinoma); KB (human squamous cell carcinoma); 4451 (human squamous cell carcinoma); L132 (human lung carcinoma); A549 (human lung carcinoma); HBL100 (human breast carcinoma) and PA1 (human ovarian carcinoma). Cells were grown in RPMI 1640 supplemented with 10% fetal calf serum, glutamine and antibiotics using standard cell culture techniques (see Animal Cell Culture: A Practical Approach, Freshney, ed, IRL press: Oxford, UK, 1992).

[1] = target: high affinity (nM range), low surface expression receptor on human tumor cells (VIP receptor) (human); assay: homologous radioligand competition, 125I-SEQ ID NO:2 on A549 cells
[2] = target: low affinity (µM range), high surface expression receptor on human tumor cells (VIP receptor) (human); assay: as above
[3] = target: high affinity (nM range), low surface expression receptor on human tumor cells (VIP receptor) (human); assay: homologous radioligand competition, 125I-SEQ ID NO:2 on L132 cells
[4] = target: low affinity (µM range), high surface expression receptor on human tumor cells (VIP receptor) (human); assay: as above
[5] = target: high affinity (nM range), low surface expression receptor on human tumor cells (VIP receptor) (human); assay: homologous radioligand competition, 125I-SEQ ID NO:2 on HT29 cells
[6] = target: VIP receptors on human tumor cell lines (human); assay: displacement of 125I labeled VIP on L132 cells
[7] = target: high affinity (nM range), low surface expression receptor on human tumor cells (VIP receptor) (human); assay: homologous radioligand competition, 125I-SEQ ID NO:2 on KB cells
[8] = target: low affinity (µM range), high surface expression receptor on human tumor cells (VIP receptor) (human); assay: as above
[9] = target: VIP receptors on human tumor cell lines (human); assay: displacement of 125I labeled VIP (10-28) fragment on HT29 cells
[10] = target: VIP receptors on human tumor cell lines (human); assay: displacement of 125I labeled VIP on PTC cells
[11] = target: VIP receptors on human tumor cell lines (human); assay: displacement of 125I labeled VIP on PA1 cells
[12] = target: VIP receptors on human tumor cell lines (human); assay: displacement of 125I labeled VIP (10-28) fragment on A549 cells
[13] = target: VIP receptors on human tumor cell lines (human); assay: displacement of 125I labeled VIP (10-28) fragment on L132 cells

Molecule: His-Ser-Asp-Aib-Val-4-Cl-D-Phe-Thr-Asp-Asn-Tyr-Thr-Arg-Leu-Arg-Lys-Gln-Leu-Ala-Val-Lys-Lys-Tyr-Leu-Asn-Ser-Ile-Leu-Asn-NH2 (HSD[Aib]V[dPhe(4-Cl)]TDNYTRLRKQLAVKKYLNSILN-NH2; N-terminus assumed; SMILES CC[C@H](C)[C@H](NC(=O)[C@H](CO)NC(=O)[C@H](CC(N)=O)NC(=O)[C@H](CC(C)C)NC(=O)[C@H](Cc1ccc(O)cc1)NC(=O)[C@H](CCCCN)NC(=O)[C@H](CCCCN)NC(=O)[C@@H](NC(=O)[C@H](C)NC(=O)[C@H](CC(C)C)NC(=O)[C@H](CCC(N)=O)NC(=O)[C@H](CCCCN)NC(=O)[C@H](CCCNC(=N)N)NC(=O)[C@H](CC(C)C)NC(=O)[C@H](CCCNC(=N)N)NC(=O)[C@@H](NC(=O)[C@H](Cc1ccc(O)cc1)NC(=O)[C@H](CC(N)=O)NC(=O)[C@H](CC(=O)O)NC(=O)[C@@H](NC(=O)[C@@H](Cc1ccc(Cl)cc1)NC(=O)[C@@H](NC(=O)C(C)(C)NC(=O)[C@H](CC(=O)O)NC(=O)[C@H](CO)NC(=O)[C@@H](N)Cc1c[nH]cn1)C(C)C)[C@@H](C)O)[C@@H](C)O)C(C)C)C(=O)N[C@@H](CC(C)C)C(=O)N[C@@H](CC(N)=O)C(N)=O) [SEQ ID NO:2, VIP receptor antagonist, preferred peptide (Xxx = Aib)]
IC50 (VIP receptors; 4451 cells): 7.1 nM
IC50 (VIP receptors; A549 cells): 4.3 nM
IC50 (VIP receptors; HBL 100 cells): 5.41 nM
IC50 (VIP receptors; HT29 cells): 2.78 nM
IC50 (VIP receptors; KB cells): 6.2 nM
IC50 (VIP receptors; L132 cells): 6.8 nM
IC50 (VIP receptors; PA1 cells): 7.6 nM
IC50 (VIP receptors; PTC cells): 2.53 nM
displacement of binding of radiolabelled VIP to the cell lines (VIP receptors; all cell lines of Table IV): significantly displace

Kd [1]: 2.09 nM
Kd [2]: 1530 nM
Kd [3]: 2.6 nM
Kd [4]: 1030 nM
Kd [5]: 3.8 nM
IC50 [6]: 6.8 nM
Kd [7]: 4.2 nM
Kd [8]: 1840 nM
IC50 [9]: 0.22 nM
IC50 [10]: 2.53 nM
IC50 [11]: 7.6 nM
IC50 [12]: 0.275 nM
IC50 [13]: 0.228 nM
B1: VIP analog His-Ser-Asp-Aib-Val-4-Cl-D-Phe-Thr-Asp-Asn-Tyr-Thr-Arg-Leu-Arg-Lys-Gln-Leu-Ala-Val-Lys-Lys-Tyr-Leu-Asn-Ser-Ile-Leu-Asn-NH2 (SEQ ID NO: 2) (peptide)
peptide: HSD[Aib]V[dPhe(4-Cl)]TDNYTRLRKQLAVKKYLNSILN-NH2
modifications: also: 125I-labelled form (iodogen) used as tracer

From patent US6608174B1, “Radiolabeled vasoactive intestinal peptide analogs for diagnosis and radiotherapy” (Dabur Research Foundation, priority 2000, dated 2003)
